The conditions of this series: Rhodopseudomonas palustris (strain ATCC BAA-98 / CGA009); pH 6.5; 25 °C; GdnHCl; CD; MES 20 mM; NaCl 40 mM; whole UniProt chain shown.

B1: Cytochrome c' wild type, P00149 (protein)
chain: MKLRIATIAGLVVLGSGFAVAQTDVIAQRKAILKQMGEATKPIAAMLKGEAKFDQAVVQKSLAAIADDSKKLPALFPADSKTGGDTAALPKIWEDKAKFDDLFAKLAAAATAAQGTIKDEASLKANIGGVLGNCKSCHDDFRAKKS
As for B1, the denaturant m value was determined as 5.12 kcal/mol/M, the “denaturant midpoint (higher = more stable)” value came to 1.71 M and the unfolding free energy came out at 8.77 kcal/mol.

Source of the values: FireProtDB (doi:10.1016/j.jmb.2009.07.074).
